# Results published in the supplement of paper PMC9942255.
# Values joined by “and” are separate entries in the source; they are usually repeats but may differ in a detail not shown here. Identical values can stand only once.
# System: Bacillus subtilis DB104 (SP-AmyQ fusion secretion)
# Test: AmyQ secretion efficiency, weighted average sort bin (1 = best secretion, 10 = worst) (bin number (weighted average, 1-10)); higher = lower secretion efficiency
# Procedure, shortened: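 The secretion score was taken as the read-frequency-weighted mean bin number, normalised to beads per bin, with low-abundance sequences excluded. Bins came from large-particle flow cytometry sorting of occupied alginate beads (~65 nL, about 0.3 cells each, with fluorescein-starch) into 10 equally populated groups by green/red fluorescence ratio after about 13 h at room temperature and nile red staining. The cells were a B. subtilis DB104 library with mature AmyQ fused to designed signal peptides, integrated at amyE, and each bin's amplicons were Illumina-sequenced.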
row,Sequence,AmyQ secretion efficiency
1,MKSKGSIMACLILFSFTITTFINTETISFFSN,6.76
2,MKSKGSIMACLILFSFTITTFINTETISGFSN,6.11
3,MKSKGSIMACLILFSFTITTFINTETISHFSN,7.54
4,MKSKGSIMACLILFSFTITTFINTETISKFSN,7.47
5,MKSKGSIMACLILFSFTITTFINTETISLFSN,7.29
6,MKSKGSIMACLILFSFTITTFINTETISMFSN,7.38
7,MKSKGSIMACLILFSFTITTFINTETISNFSN,7.44
8,MKSKGSIMACLILFSFTITTFINTETISPFSN,7.51
9,MKSKGSIMACLILFSFTITTFINTETISQFSN,7.33
10,MKSKGSIMACLILFSFTITTFINTETISRFSN,8.63
11,MKSKGSIMACLILFSFTITTFINTETISTFSN,7.54
12,MKSKGSIMACLILFSFTITTFINTETISVFSN,7.71
13,MKSKGSIMACLILFSFTITTFINTETISYFSN,7.41
14,MKSKGSIMACLILFSFTITTFINTETKSAFSN,6.7
15,MKSKGSIMACLILFSFTITTFINTETLSAFSN,6.34
16,MKSKGSIMACLILFSFTITTFINTETMSAFSN,5.38
17,MKSKGSIMACLILFSFTITTFINTETPSAFSN,5.71
18,MKSKGSIMACLILFSFTITTFINTETRSAFSN,8.47
19,MKSKGSIMACLILFSFTITTFINTETSSAFSN,3.41
20,MKSKGSIMACLILFSFTITTFINTETSSVFTPISAFSN,6.5
21,MKSKGSIMACLILFSFTITTFINTETTSAFSN,5.51
22,MKSKGSIMACLILFSFTITTFINTETWSAFSN,7.56
23,MKSKGSIMACLILFSFTITTFINTGTISAFSN,4.33
24,MKSKGSIMACLILFSFTITTFISVETISAFSN,5.39
25,MKSKGSIMACLILFSFTITTTINTETISAFSN,5.95
26,MKSKGSIMACLILFSFTITTVTFINTETISAFSN,5.25

row,Sequence,AmyQ secretion efficiency
1,MKSKGSIMACLILFSFTTFINTETISAFSN,4.68
2,MKSKGSIMACRRKRRRTITTFINTETISAFSN,6.8
3,MKSKGSIMIFIFACLILFSFTITTFINTETISAFSN,7.77
4,MKSKGSIMKCQILFSFTITTFINTETISAFSN,6.89
5,MKSKGSIMSACLILFSFTITTFINTETISAFSN,3.07
6,MKSKGSIMSCLILFSFTITTFINTETISAFSN,3.29
7,MKSKVKIAGVLTVAAAAMTAKMYATAKGN,7.17
8,MKSKWMRQKRLVAVGFSFTQVMVHAGET,8.54
9,MKSKWMSGLLLVAVGFSFAIVMVHAGET,5.38
10,MKSKWMSGLLLVAVGFSFIALFATQVMVHAGET,7.59
11,MKSKWMSGLLLVAVGFSFITQVMVHAGET,6.13
12,MKSKWMSGLLLVAVGFSFRKKKKKVHAGET,7.2
13,MKSKWMSGLLLVAVGFSFRKKMVHAGET,7.87
14,MKSKWMSGLLLVAVGFSFTLFSSAVVSTQVMVHAGET,7.18
15,MKSKWMSGLLLVAVGFSFTQVMAHAGET,7.06
16,MKSKWMSGLLLVAVGFSFTQVMDHAGET,6.14
17,MKSKWMSGLLLVAVGFSFTQVMEHAGET,7.11
18,MKSKWMSGLLLVAVGFSFTQVMFHAGET,6.46
19,MKSKWMSGLLLVAVGFSFTQVMGGFFAVHAGET,7.03
20,MKSKWMSGLLLVAVGFSFTQVMGHAGET,5.88
21,MKSKWMSGLLLVAVGFSFTQVMHHAGET,6.66
22,MKSKWMSGLLLVAVGFSFTQVMLHAGET,6.15
23,MKSKWMSGLLLVAVGFSFTQVMNHAGET,5.68
24,MKSKWMSGLLLVAVGFSFTQVMSHAGET,6.67
25,MKSKWMSGLLLVAVGFSFTQVMTHAGET,7.1
26,MKSKWMSGLLLVAVGFSFTQVMTSFFTPASPVHAGET,6.76

row,Sequence,AmyQ secretion efficiency
1,MKSKWMSGLLLVAVGFSFTQVMVHADEE,6.6
2,MKSKWMSGLLLVAVGFSFTQVMVHAGDE,5.94
3,MKSKWMSGLLLVAVGFSFTQVMVHAGET,6.97 and 4.43 and 7.09
4,MKSKWMSGLLLVAVGFSFTQVMVHAGRR,7.76
5,MKSKWMSGLLLVAVGFSFTQVMVHAGTT,5.78
6,MKSKWMSGLLLVAVGFSFTQVMVHARRR,7.53
7,MKSKWMSGLLLVAVGFSFTQVMVHCGET,4.81
8,MKSKWMSGLLLVAVGFSFTQVMVHEGET,5.54
9,MKSKWMSGLLLVAVGFSFTQVMVHGGET,7.46
10,MKSKWMSGLLLVAVGFSFTQVMVHHGET,6.33
11,MKSKWMSGLLLVAVGFSFTQVMVHIGET,5.32
12,MKSKWMSGLLLVAVGFSFTQVMVHLGET,7.17
13,MKSKWMSGLLLVAVGFSFTQVMVHNGET,8.98
14,MKSKWMSGLLLVAVGFSFTQVMVHPGET,7.16
15,MKSKWMSGLLLVAVGFSFTQVMVHQGET,6.96
16,MKSKWMSGLLLVAVGFSFTQVMVHSGET,6.94
17,MKSKWMSGLLLVAVGFSFTQVMVHWGET,5.88
18,MKSKWMSGLLLVAVGFSFTQVMWHAGET,7.01
19,MKSKWMSGLLLVAVGFSFTQVMYHAGET,7.02
20,MKSKWMSGLLLVAVGFSFTSVMVHAGET,7.31
21,MKSKWMSGLLLVAVGTQVMVHAGET,5.76
22,MKSKWMSRKLLVAVGFSFTQVMVHAGET,6.44
23,MKSKWMSRKRRVAVGFSFTQVMVHAGET,6.31
24,MKSKWQRKRRSGLLLVAVGFSFTQVMVHAGET,6.49
25,MKSLPYTIALLFCGLIIVSMAAKGDED,8.1
26,MKSLPYTIALLFCGLIIVSMAAKGHED,7.33

row,Sequence,AmyQ secretion efficiency
1,MKSLPYTIALLFCGLIIVSMAAKGHKK,6.13
2,MKSLPYTIALLFCGLIIVSMAAKGHST [wt_52],6.6
3,MKSLPYTIALLFCGLIIVSMAAKGKKR,7.49
4,MKSRTIWTIILGALCIAVAYTLTKSQAGASSS,8.18
5,MKSRTIWTIILGALLVCCIAVAYTLTKSQAGASSS,5.1 and 5.65
6,MKSRTIWTIILGALLVCCKKKKRTLTKSQAGASSS,6.52
7,MKSRTIWTIILGALLVCSAASSCIAVAYTLTKSQAGASSS,6.64
8,MKSSSSALLLLLFAFEPSASGKKL,7.85
9,MKTKTFLFIFSAILTLSIFAPNETFAQTA,2.73
10,MKTKTGFIFSAILTLSIFAPNETFAQTA,1.63
11,MKTKTLFIFSAILTFAPNETFAQTA,2.34
12,MKTKTLFIFSAILTLSIEDEDEETFAQTA,5.99
13,MKTKTLFIFSAILTLSIFAPNEAFAQTA,1.47
14,MKTKTLFIFSAILTLSIFAPNECFAQTA,2.92
15,MKTKTLFIFSAILTLSIFAPNEGFAQTA,3.32
16,MKTKTLFIFSAILTLSIFAPNEMFAQTA,1.9
17,MKTKTLFIFSAILTLSIFAPNESFAQTA,2.17
18,MKTKTLFIFSAILTLSIFAPNETFAQEE,1.78
19,MKTKTLFIFSAILTLSIFAPNETFAQRR,1.31
20,MKTKTLFIFSAILTLSIFAPNETFAQTK,1.96
21,MKTKTLFIFSAILTLSIFAPNETFARRR,2.28
22,MKTKTLFIFSAILTLSIFAPNEVFAQTA,1.58
23,MKTKTLFIFSAILTLSIFAPNTTFAQTA,2
24,MKTKTLFIFSAILTLSIFASTITLSAFAPNETFAQTA,3.01
25,MKTKTLFIFSAILTLSIQAPNETFAQTA,2.35
26,MKTKTLFIFSAILTLSIRKPNRTFAQTA,6.8

row,Sequence,AmyQ secretion efficiency
1,MKTKTLKRFSAILTLSIFAPNETFAQTA,3.24
2,MKTLRNMLSTLCVLMILSGVIFFGLKIDAKDI,6.22
3,MKTLRSRCYKGILSGVIFFGLKIDAKDI,6.82
4,MKTLRTKCRKKILSGVIFFGLKIDAKDI,6.97
5,MKTLRTLCVLMILSGVIFFGLKCDAKDI,4.31
6,MKTLRTLCVLMILSGVIFFGLKDIDAKDI,6.44
7,MKTLRTLCVLMILSGVIFFGLKIDADDD,6.82
8,MKTLRTLCVLMILSGVIFFGLKIDCKDI,5.37
9,MKTLRTLCVLMILSGVIFFGLKIDRKDI,5.46
10,MKTLRTLCVLMILSGVIFFGLKIDVKDI,6.52
11,MKTLRTLCVLMILSGVIFFGLKLDAKDI,7.62
12,MKTLRTLCVLMILSGVIFFGLKYDAKDI,5.31
13,MKTPKGMLLSTAAGLLLSLTATSVSAHYV,5.33
14,MKVCQKSIKRFLVSLIIGTFVISVPFMANAQSD,1.93
15,MKVCQKSIRFLVSLIIGTFVISVPFMANAQSD,1.22
16,MKVCQKSIVRFKRRKRRGTFVISVPFMANAQSD,7.96
17,MKVCQKSIVRFLVFLIIFLFVIGTSVPFMANAQSD,2.68
18,MKVCQKSIVRFLVSLIIGTFVIRKKFMANAQSD,6.59
19,MKVCQKSIVRFLVSLIIGTFVISVPFMANAEED,3.09
20,MKVCQKSIVRFLVSLIIGTFVISVPFMANAQDD,2.65
21,MKVCQKSIVRFLVSLIIGTFVISVPFMANAQSE,1.52
22,MKVCQKSIVRFLVSLIIGTFVISVPFMANAQSK,2.23
